# Laboratory results reported in paper PMC6486636, “LARP4A recognizes polyA RNA via a novel binding mechanism mediated by disordered regions and involving the PAM2w motif, revealing interplay between PABP, LARP4A and mRNA”.
# T1: LARP4A 1-50 (Homo sapiens, UniProt Q71RC2 1-50)
# T1 chain: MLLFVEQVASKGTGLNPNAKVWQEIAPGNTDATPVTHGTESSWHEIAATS
# Columns and labels:
# [1] = biological target: T2, LARP4A NTD (Homo sapiens, UniProt Q71RC2 1-287); experiment: MST; 25 C; agrees with EMSA; Kd only in figure; EMSA: 20 mM Tris pH 7.25, 200 mM KCl, 5% glycerol, 1 mM DTT, 0.1 mg/ml BSA, 0.01 mg/ml E. coli tRNA, on ice, gel at 4 C; MST: 20 mM Tris pH 7.25, 100 mM KCl, 0.2 mM EDTA, 1 mM DTT, 0.05% Tween-20, 25 C; conditions: protein: recombinant; tags: His tag (TEV) or His-SUMO, cleaved; label: 5' fluorescein (FAM); single strand
# [2] = biological target: T3, LARP4A NTR (Homo sapiens, UniProt Q71RC2 1-111); experiment: as above; conditions: protein: recombinant; tags: His (TEV) or His-SUMO, cleaved; label: 5' fluorescein (FAM); single strand
# [3] = biological target: LARP4A 1-79 (Homo sapiens, UniProt Q71RC2 1-79); experiment: EMSA; up to 200 uM protein; EMSA: 20 mM Tris pH 7.25, 200 mM KCl, 5% glycerol, 1 mM DTT, 0.1 mg/ml BSA, 0.01 mg/ml E. coli tRNA, on ice, gel at 4 C; MST: 20 mM Tris pH 7.25, 100 mM KCl, 0.2 mM EDTA, 1 mM DTT, 0.05% Tween-20, 25 C; conditions: protein: recombinant; tags: His-SUMO, cleaved; label: 5' 32P (EMSA); unlabelled (NMR, native MS); single strand
# [4] = biological target: T1, LARP4A 1-50; experiment: as above; conditions: protein: recombinant; tags: His-SUMO, cleaved; label: 5' 32P (EMSA); unlabelled (NMR, native MS); single strand
# [5] = biological target: LARP4A La module (Homo sapiens, UniProt Q71RC2 111-287); experiment: NMR; small shifts, almost exclusively RRM1; 100 mM KCl; EMSA: 20 mM Tris pH 7.25, 200 mM KCl, 5% glycerol, 1 mM DTT, 0.1 mg/ml BSA, 0.01 mg/ml E. coli tRNA, on ice, gel at 4 C; MST: 20 mM Tris pH 7.25, 100 mM KCl, 0.2 mM EDTA, 1 mM DTT, 0.05% Tween-20, 25 C; conditions: protein: recombinant; tags: His tag, TEV-cleaved; label: 5' 32P (EMSA); unlabelled (NMR, native MS); single strand
# Sequence of LARP4A La module (Q71RC2 111-287): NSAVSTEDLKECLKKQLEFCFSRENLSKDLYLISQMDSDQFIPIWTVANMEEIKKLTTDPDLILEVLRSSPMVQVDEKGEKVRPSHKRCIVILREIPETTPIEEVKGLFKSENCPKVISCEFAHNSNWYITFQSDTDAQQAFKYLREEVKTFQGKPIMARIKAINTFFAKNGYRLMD
# [6] = biological target: T3, LARP4A NTR; experiment: EMSA; with competitor tRNA; retains majority of affinity; Kd only in figure; EMSA: 20 mM Tris pH 7.25, 200 mM KCl, 5% glycerol, 1 mM DTT, 0.1 mg/ml BSA, 0.01 mg/ml E. coli tRNA, on ice, gel at 4 C; MST: 20 mM Tris pH 7.25, 100 mM KCl, 0.2 mM EDTA, 1 mM DTT, 0.05% Tween-20, 25 C; conditions: protein: recombinant; tags: His (TEV) or His-SUMO, cleaved; label: 5' 32P (EMSA); unlabelled (NMR, native MS); single strand
# [7] = biological target: T2, LARP4A NTD; experiment: EMSA; with competitor tRNA; low micromolar Kd, >100-fold tighter than La module; value only in figure; EMSA: 20 mM Tris pH 7.25, 200 mM KCl, 5% glycerol, 1 mM DTT, 0.1 mg/ml BSA, 0.01 mg/ml E. coli tRNA, on ice, gel at 4 C; MST: 20 mM Tris pH 7.25, 100 mM KCl, 0.2 mM EDTA, 1 mM DTT, 0.05% Tween-20, 25 C; conditions: protein: recombinant; tags: His tag (TEV) or His-SUMO, cleaved; label: 5' 32P (EMSA); unlabelled (NMR, native MS); single strand
Binder,binding result [1],binding result [2],binding result [3],binding result [4],binding result [5],binding result [6],binding result [7]
AAAAAAAAAAAAAAAAAAAA (ssRNA) [5'FAM-oligoA20],binds,binds,,,,,
AAAAAAAAAAAAAAA (ssRNA) [oligoA15],,,no binding,no binding,binds,binds,binds
